# Reference: US9205136B2, “Human aminoacyl-tRNA synthetase polypeptides useful for the regulation of angiogenesis” (THE SCRIPPS RESEARCH INSTITUTE, priority 2000, dated 2015)
# Assays:
# MPs = details: Kao et al., 1994; cited from earlier work
# PMNs [1] = details: Kao et al., 1994; cited from earlier work
# PMNs [2] = test: PMN chemotaxis assay (ChemoTX microchemotaxis chamber); format: cell-based, human; details: sample proteins 1 nM, 45 min
# Procedure: Cells for the various cytokine assays described were prepared from acid citrate dextrose-treated blood of normal healthy volunteers. Human PMNs were isolated from the blood by centrifugation (700×g) over Histopaque 1077 and 1119 (Sigma). […] This procedure was repeated twice. Human MPs were isolated by centrifugation on Histopaque 1077 (Sigma). The mononuclear fraction was obtained, washed twice in Hanks' balanced salt solution, resuspended in RPMI-1640 medium (Sigma) containing 10% heat-inactivated fetal bovine serum (Sigma), plated in tissue culture flasks, and incubated in a 6% CO2 incubator at 37° C. for 1-2 hours (Kumagai et al., 1979, J. Immunol. Methods 29:17-25). Nonadherent cells were removed by washing the flasks three times with Hanks' balanced salt solution, and adherent cells were harvested by incubation with calcium-magnesium free phosphate-buffered saline containing 2 mM EDTA for 15 minutes at 4° C., followed by extensive washing.
# PMN chemotaxis assays were performed in a ChemoTX microchemotaxis chamber (described herein). Sample proteins (1 nM) were added to the lower compartment of chemotaxis chambers, and 10^4 PMNs were added to the upper compartment. Chambers were incubated for 45 min, and migrating cells were counted in HPFs. Each determination shown in FIG. 2 represents the average of nine HPF measurements.
# PMNs [3] = test: 125I-human mini TyrRS binding and competition assay on PMNs; details: 10 nM 125I-mini TyrRS, 200-fold molar excess of unlabeled ligand, on ice 2 hours
# Procedure: The interaction of human mini TyrRS and PMNs was examined in binding studies using radioiodinated TyrRS molecules (Moser et al., 1993, J. Biol. Chem. 268:7125-28). Custom radioiodination of mini TyrRS with was performed by Research & Diagnostic Antibody (Richmond, Calif.). In the binding assays, 2×10^6 PMNs were first suspended in 120 μl of RPMI-1640 medium containing 20 mM Hepes (pH 7.4) and 10 mg/ml bovine serum albumin. […] Following incubation, cells were separated from unbound radioactivity by centrifugation at approximately 8000×g for 2 minutes through 500 μL, of a 10% sucrose/phosphate-buffered saline (PBS) cushion. The supernatant was aspirated, and the cell sediment was resuspended using EcoLite (ICN Biomedicals, Irvine, Calif.) and analyzed in a scintillation counter.
# Following incubation, cells were separated from unbound radioactivity as described herein.
# [4] = system: human umbilical vein endothelial cells (HUVECs); test: HUVEC migration assay (modified Boyden chamber); format: cell-based; details: 50 nM TyrRS molecule or 0.5 nM VEGF165, 6 hours
# Procedure: In contrast, α-chemokines lacking the ELR motif act as angiostatic factors (id.). In order to evaluate the angiogenic activity of TyrRS, which contains the ELR motif, human full-length TyrRS and human mini TyrRS were first examined for their ability to induce endothelial cell migration. Such angiogenic assays were performed using human umbilical vein endothelial cells (HUVECs) (Clonetics, Walkersville, Md.). Cells were maintained in EGM-2® BULLETKIT® medium (Clonetics) in an atmosphere of 6% CO2 at 37° C. according to the supplier's instructions.
# Cell migration assays were performed using the modified Boyden chamber (6.5 mm Transwells) with polycarbonate membranes (8.0 μm pore size) (Costar Corp., Cambridge, Mass.) (Masood et al., 1999, Blood 93:1038-44). Wells were coated overnight with 25 μg/mL human fibronectin (Biosource International, Camarillo, Calif.) in PBS and then allowed to air-dry. HUVECs were suspended in Dulbecco's modified Eagle's medium (DMEM) (Gibco-BRL, Gaithersburg, Md.) containing 0.1% BSA (Sigma) and 2×10^5 cells per well were added to the upper chamber. The chemotactic stimulus (50 nM of a given TyrRS molecule or 0.5 nM of human vascular endothelial growth factor-165 (VEGF165) (Biosource International, Camarillo, Calif.)) was placed in the lower chamber, and the cells were allowed to migrate for 6 hours at 37° C. in a 6% CO2 incubator. After incubation, non-migrant cells were removed from the upper face of the Transwell membrane with a cotton swab and migrant cells, those attached to the lower face, were fixed in methanol and visualized with the HEMACOLOR® stain set (EM Diagnostic Systems, Gibbstown, N.J.). Migrating cells were counted in high-power fields (HPFs). HUVECs were suspended in media with the inhibitor for 30 minutes before placement in the chamber. Each determination shown in FIG. 16 represents the average of nine HPF measurements.
# [5] = system: chick chorioallantoic membrane (CAM); test: In vivo angiogenesis assay in chick chorioallantoic membrane (CAM); details: 250 ng TyrRS molecule or 25 ng VEGF165 on filter disk, 72 hours
# Procedure: In vivo angiogenesis assays were conducted in chick chorioallantoic membrane (CAM) (Nicolaou et al., 1998, Bioorg. Med. Chem. 6:1185-208). Ten-day-old chick embryos were purchased from Mcintyre Poultry (Lakeside, Calif.) and were incubated at 37° C. and 70% humidity. A small hole was made with a small crafts drill (Dremel, Emerson Electric, Racine, Wis.) directly over the air sac at the end of the egg. The embryos were candled to determine a location to drill a second hole directly over embryonic blood vessels. […] A window was cut in the eggshell over the dropped CAM, exposing the CAM to direct access for experimental manipulation. Cortisone acetate-treated 5 mm filter disks were soaked with a particular protein sample (25 ng of VEGF165 or 250 ng of a given TyrRS molecule) and the filter disks added directly to the CAMs, which were relatively devoid of preexisting blood vessels. The windows were sealed with sterile tape and incubated at 37° C. […] After 72 hours, the CAM tissue associated with the filter disk was harvested and quantified using a stereomicroscope. Angiogenesis was assessed as the number of visible blood vessel branch points within the defined area of the filter disks. Each determination shown in FIG. 17 represents the mean from 5-8 embryos.
inhibition of 125I-mini TyrRS binding to PMNs by unlabeled ligand (PMNs [3]),Molecule,MP migration induced by synthetic peptide (literature) (MPs),PMN migration induced by synthetic peptide (literature) (PMNs [1]),PMN chemotaxis (PMN migration) (PMNs [2]),HUVEC chemotaxis [4],in vivo angiogenesis in chick CAM (blood vessel branch points) [5]
–,"R-I-G-R-I-I-T (RIGRIIT; listed as Homo sapiens) [synthetic peptide of seven residues near the amino-terminus of human mature EMAP II, Cys replaced by Arg]",can induce PMN or MP migration,can induce PMN or MP migration,–,–,–
did not inhibit the binding,"mini TyrRS mutant: mini TyrRS in which the ELR motif was mutated to ELQ (Glu-Leu-Gln) (protein, His6 tag; Human mini TyrRS mutant in pET20B) MGDAPSPEEKLHLITRNLQEVLGEEKLKEILKERELKIYWGTATTGKPHVAYFVPMSKIADFLKAGCEVTILFADLHAYLDNMKAPWELLELQVSYYENVIKAMLESIGVPLEKLKFIKGTDYQLSKEYTLDVYRLSSVVTQHDSKKAGAEVVKQVEHPLLSGLLYPGLQALDEEYLKVDAQFGGIDQRKIFTFAEKYLPALGYSKRVHLMNPMVPGLTGSKMSSSEEESKIDLLDRKEDVKKKLKKAFCEPGNVENNGVLSFIKHVLFPLKSEFVILRDEKWGGNKTYTAYVDLEKDFAAEVVHPGDLKNSVEVALNKLLDPIREKFNTPALKKLASAAYPDPSKQKPMAKGPAKNSEPEEVILEHHHHHH",–,–,did not induce PMN migration,no chemotaxis was observed,failed to induce in vivo angiogenesis
